Experimental data taken from PMC6105217, “Modification of translation factor aIF5A from Sulfolobus solfataricus” (Extremophiles, 2018).

Molecular target: the molecule itself
Assay: SEC-MALS; Superdex S200 10/300 GL increase, 20 mM Tris-HCl pH 7.5, 150 mM NaCl, 25 °C; protein pre-incubated at 65 °C for 10 min, 100 µl injected at 1.5 mg/ml

B1: recombinant aDHS-C-His (enzyme, Sulfolobus solfataricus, UniProt Q97ZF1 1-312, looked up)
chain: MINREDLLKNPVEDITLSDLKKYNDIVSVFDKIYGFSSEGIVNGSKILKEMIKNADLRFLSFTANLVSTGLRGLFADLIKKGYFNIVVTTGGTIDHDLARSFGGVYYKGSFDIDDTMLKDLEIHRLGNVLVPFESYGKVIEDVVRKFLPEITKDRKEISAYELLWEFGKRITDSNSILRAAYDKNVPIIVPGILDGSFGTNLFIQSQFLNFRINLFEDMRLIKDLIFSSKKSGALIIGGGISKHHTIWWNQFKDGLNYAIYITTAQEYDGSLSGAKPREAISWNKIRPDAKHVTIYGDATIIVPILAASLLS
notes: deoxyhypusine synthase, Sulfolobus solfataricus P2, ORF SSO0967, amplified by PCR from genomic DNA; source: E. coli BL21 (DE3) (pQE-70-DHS-C-His), purified (Ni-NTA); not shown: His-tag, C-terminal, kept
- stoichiometry N: 4
